Measured values reported in US20240288436A1 (KOREA ATOMIC ENERGY RESEARCH INSTITUTE, published 2024).
Changes are numbered by the printed parent chain. Names may count otherwise.

T1: Biotin-GSAGGSTWGYPFHDGDYLNDE synthetic peptide (human TM4SF4 aa 126-140) (human, N-terminal biotin)
T1 construct: Immobilised on a streptavidin sensor chip as the SPR ligand; also called Biotin-hTM4SF4 aa 126-140; human TM4SF4-peptide (hTM4SF4 aa 126-140)
T1 peptide: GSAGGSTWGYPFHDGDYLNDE

B1: Hz2B7-3.2 humanized anti-TM4SF4 antibody (HC W55S, LC N31F) (antibody, V domains shown)
VH: EITLKESGPTLVKPTQTLTLTCTFSGFSLSTYGIGVSWIRQPPGKALEWLAHIWSNDNKYYNTALKSRLTITKDTSKNQVVLTMTNMDPVDTATYYCARKEGSSAPFAYWGQGTLVTVSS
VL: DIVMTQSPDSLAVSLGERATINCKSSQSLLFSSNQKNYLAWYQQKPGQPPKLLIYFASTRESGVPDRFSGSGSGTDFTLTISLMQAEDVAVYYCQQHYRTPPTFGQGTKVEIK
notes: Whole IgG, human IgG1 / kappa constant regions; also called HzE2B7-3.2; HzE2B7-3.2(HC W55S, LC N31F)
B2: Hz2B7-1.3 humanized anti-TM4SF4 antibody (LC N31V) (antibody, V domains shown)
VH: B1 VH with S55W
VL: B1 VL with F31V
notes: Whole IgG, human IgG1 / kappa constant regions from the pdCMV-dhfr vector; only VH and VL are tied to the antibody; also called HzE2B7-1.3; HzE2B7-1.3(LC N31V)
B3: Hz2B7-1.1 humanized anti-TM4SF4 antibody (antibody, human IgG1, V domains shown)
VH: B1 VH with S55W
VL: B1 VL with F31N
notes: Tested as whole IgG from the pdCMV-dhfr vector (human IgG1 heavy constant, human kappa light constant); also called HzE2B7-1.1; HzE2B7-1.1(origin)
B4: Hz2B7-3.3 humanized anti-TM4SF4 antibody (antibody, human IgG1, V domains shown)
VH: B1 VH
VL: B1 VL with F31V
notes: Whole IgG, human IgG1 / kappa constant regions
B5: Hz2B7-4.1 humanized anti-TM4SF4 antibody (antibody, human IgG1, V domains shown)
VH: B1 VH with S55Y
VL: B1 VL with F31N
notes: as for B4
B6: Hz2B7-1.2 humanized anti-TM4SF4 antibody (LC N31F) (antibody, V domains shown)
VH: B1 VH with S55W
VL: B1 VL
notes: Whole IgG, human IgG1 / kappa constant regions from the pdCMV-dhfr vector; only VH and VL are tied to the antibody; also called HzE2B7-1.2; HzE2B7-1.2(LC N31F)
B7: Hz2B7-3.1 humanized anti-TM4SF4 antibody (antibody, human IgG1, V domains shown)
VH: B1 VH
VL: B1 VL with F31N
notes: as for B4
B8: Hz2B7-4.3 humanized anti-TM4SF4 antibody (HC W55Y, LC N31V) (antibody, V domains shown)
VH: B1 VH with S55Y
VL: B1 VL with F31V
notes: Whole IgG, human IgG1 / kappa constant regions; also called HzE2B7-4.3; HzE2B7-4.3(HC W55Y, LC N31V)
B9: Hz2B7-4.2 humanized anti-TM4SF4 antibody (antibody, human IgG1, V domains shown)
VH: B1 VH with S55Y
VL: B1 VL
notes: as for B4
B10: Hz2B7-2.1 humanized anti-TM4SF4 antibody (antibody, human IgG1, V domains shown)
VH: B1 VH with A46V, S55W
VL: B1 VL with F31N
notes: as for B4

Target: T1, Biotin-GSAGGSTWGYPFHDGDYLNDE synthetic …
Assay: SPR (Biacore T200), biotin-TM4SF4(126-140) peptide captured on SA sensor chip, antibody as analyte, 1:1 binding model with mass transfer
Method: (§1) First, a streptavidin-conjugated sensor chip (Series S Senser Chip SA, Cytiva) was inserted into Biacore T200 (Cytiva), and activation buffer (1M NaCl, 50 mM NaOH) was flowed for 30 seconds, followed by HBS-EP buffer (Cytiva) to induce activation and stabilization of the sensor chip surface. […] The analyze antibodies of each concentration were flowed through the constructed ligand-bound streptavidin conjugated sensor chip at a rate of 30 ul/min for 480 seconds to induce binding, and then HBS-EP buffer solution was flowed at the same time and speed, and the degree to which the analyte antibody was dissociated from the ligand peptide was obtained in the form of a response unit. The association rate (Ka), dissociation rate (Kd), and equilibrium dissociation constant (KD, Kd/Ka) values were calculated using Biacore T200 evaluation software (Cytiva) by excluding the ligand-unbound sensor chip response values obtained in the same manner. As a calculation standard, the mass transfer fitting model for the interaction between the ligand peptide and the analyte antibody was analyzed using 1:1 binding.

**Q.** With B1 as the binder, how does the koff read?
**A.** Its koff is 0.000792 s⁻¹.

**Q.** And the kon?
**A.** The kon was 7080 M⁻¹ s⁻¹.

Target: T1, Biotin-GSAGGSTWGYPFHDGDYLNDE synthetic …
Assay: SPR, Biacore T200, biotin-peptide on streptavidin chip, antibody as analyte, 1:1 binding
Method: as §1

**Q.** With B2 as the binder, how does the Kd read?
**A.** The Kd was 35.4 nM.

**Q.** Which Kd does the source give for B1 here?
**A.** Its Kd is 112 nM.

target: T2, BSA (UniProt P02769 25-607); assay: indirect ELISA on coated BSA (1 µg/ml), anti-human IgG kappa-HRP, OD490nm
T2 construct: Coated at 1 ug/ml as the specificity control; also called BSA solution
Method: Specifically, the humanized antibody was manufactured in 10 types of Hz2B7-1.1, Hz2B7-1.2, Hz2B7-1.3, Hz2B7-2.1, Hz2B7-3.1, Hz2B7-3.2, Hz2B7-3.3, Hz2B7-4.1, Hz2B7-4.2 and Hz2B7-4.3, by combining 4 heavy chain variable region variants and 3 light chain variable region variants designed through Examples 1 and 2 above. For this, 100 μ of TM4SF4-BSA (1 μg/m ) or BSA solution (1 μg/M ) dissolved in coating buffer (100 mM carbonate/bicarbonate coating buffer, pH 9.6) was added to the bottom of each well of a 96-well plate and adsorbed at 4° C. for more than 16 hours. Next, the coated antigen was washed three times with washing buffer (wash buffer, 0.05% PBS-T, Tween-20), then 200 μ of block buffer (blocking buffer, 5% skim milk in wash buffer) was added to the bottom of each well where the antigen was not adsorbed, reacted at 4° C. for more than 16 hours, and then washed again three times with washing buffer. Then, the 10 combinations of the humanized antibodies and the chimeric antibodies purified through Experimental Example 1 were prepared by diluting them to various concentrations using block buffer, and then 100 μ a of each concentration was added to each well and reacted for 2 hours at room temperature. After washing again three times, 1 mg/ml antibody (α-human IgG-Kappa chain-HRP, Bethyl, USA) for detection was diluted 10,000-fold using block buffer solution, and 100 μ was added to each well and incubated at room temperature for 1 hour. After the reaction was completed, the wells were washed three times with washing buffer, 100 μl of substrate solution (OPD solution, 4 μ 30% H₂O₂, 100 μ OPD stock (40 mg/m ), adjusted to 10 m with phosphate citrate buffer) was added to each well, and the reaction was performed at room temperature. Then, 50 μl of 2.5M H₂SO₄ was added to terminate the reaction. Finally, to measure the activity of the enzyme bound to the solid phase, the absorbance was measured at 490 nm using an ELISA reader (FIG. 10).

T2 sequence (P02769 25-607 limits assumed): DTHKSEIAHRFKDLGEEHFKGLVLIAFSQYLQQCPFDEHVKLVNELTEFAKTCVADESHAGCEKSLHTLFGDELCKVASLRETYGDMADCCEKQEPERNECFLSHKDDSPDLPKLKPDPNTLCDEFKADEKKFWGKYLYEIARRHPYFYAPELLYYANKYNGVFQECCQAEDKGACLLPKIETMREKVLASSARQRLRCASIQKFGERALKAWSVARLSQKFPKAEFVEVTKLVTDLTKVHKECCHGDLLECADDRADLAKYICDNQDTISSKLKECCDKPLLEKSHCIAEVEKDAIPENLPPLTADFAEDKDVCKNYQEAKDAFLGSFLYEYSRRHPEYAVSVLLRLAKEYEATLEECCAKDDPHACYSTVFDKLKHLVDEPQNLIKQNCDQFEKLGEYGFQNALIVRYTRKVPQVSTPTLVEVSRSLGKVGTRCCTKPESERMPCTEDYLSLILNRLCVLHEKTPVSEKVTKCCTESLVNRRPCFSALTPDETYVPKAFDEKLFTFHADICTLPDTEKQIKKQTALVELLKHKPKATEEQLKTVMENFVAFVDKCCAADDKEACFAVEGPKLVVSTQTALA

**Q.** Does B2 bind?
**A.** Result: no binding (tested: 1000 ng/ml)

**Q.** Does B3 bind?
**A.** Result: no binding (tested: 1000 ng/ml)

**Q.** Does B4 bind?
**A.** Result: no binding (tested: 1000 ng/ml)

**Q.** Does B5 bind?
**A.** Result: no binding (tested: 1000 ng/ml)

**Q.** Does B6 bind?
**A.** Result: no binding (tested: 1000 ng/ml)

**Q.** Does B7 bind?
**A.** Result: no binding (tested: 1000 ng/ml)

**Q.** Does B1 bind?
**A.** Result: no binding (tested: 1000 ng/ml)

**Q.** Does B8 bind?
**A.** Result: no binding (tested: 1000 ng/ml)

**Q.** Does B9 bind?
**A.** Result: no binding (tested: 1000 ng/ml)

**Q.** Does B10 bind?
**A.** Result: no binding (tested: 1000 ng/ml)
